In publication PMC314469, “Protein Interaction Networks by Proteome Peptide Scanning” (PLoS Biology, 2004):

T1: amphyphisin SH3 (AMPH_HUMAN), P49418
T1 chain: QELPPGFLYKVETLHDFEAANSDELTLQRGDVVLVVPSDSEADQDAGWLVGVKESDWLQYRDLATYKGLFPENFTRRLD


Assays:
[1] = molecular target: T1, amphyphisin SH3 (AMPH_HUMAN), P49418; assay: SPOT array
[2] = molecular target: endophilin SH3 (SH3G2_HUMAN), Q99962; assay: SPOT array

Row | normalised SPOT signal, Boehringer light units (BLU); mean over the file's lines of this peptide [1] | normalised SPOT signal, Boehringer light units (BLU); mean over the file's lines of this peptide [2] | Binder
1 | 895 | 882 | NFGDLGRPGRGGRG [Q9Y367 343-356]
2 | 793 | 525 | NFQPPKRPFKRMNY [O43776 380-393]
3 | 4650 | 35.6 | NGVEPKRPSRPINI [O75925 239-252]
4 | 393 | 690 | NEDYPRRPLTRARS [Q9HC40 116-129]
5 | 2600 | 4510 | NDRFPFRPSRGRPT [Q9Y3I1 502-515]
6 | 370 | 1560 | NLLPPKRPIKEVLT [Q9NNY5 699-712]
7 | 76.1 | 2530 | MNMTPRRPGPTRKH [P10747 192-205]
8 | 512 | 199 | NSEHFHRPLRRSEA [O15050 583-596]
9 | 1050 | 2740 | MLQAPIRPPKPQSS [O95600 103-116]
10 | 113 | 1970 | NLFGPKRPKALKLL [O75560 490-503]
11 | 49.2 | 556 | NSFIPKRPIPTIKD [Q96TH1 910-923]
12 | 46.1 | 0 | NEPHIKRPMNAFMV [P35711 136-149]
13 | 18.3 | 228 | MSTPLRRPSASETV [Q9P2M8 940-953]
14 | 42.3 | 181 | ARARPRRPREETLT [P53539 138-151]
15 | 124 | 128 | NKIEFKRPGKAANK [Q9ULP1 1037-1050]
16 | 222 | 1570 | MRKYPNRPSKTPPH [P18146 321-334]
17 | 6.6 | 366 | NKVPIKRPSTGLLM [Q92187 271-284]
18 | 88.2 | 6860 | NSQAPRRPWLASHM [O43284 274-287]
19 | 19.8 | 27.4 | AREEFRRPRESLLN [Q96JI4 1223-1236]
20 | 178 | 222 | MSSAPRRPAKGADS [Q99654 1-14]
21 | 58.1 | 9000 | MNGLPPRPPLPESL [Q15428 237-251]
